Test results published in PMC3579940.

Key:
biotin-AR-CTF = test: SPR; BIAcore S51; biotin-EGFR-ligand-CTFs immobilised (~1000 RU) on streptavidin chips; GST-ZnF5-8 0.03-1.0 µM injected at 30 µL/min for 2 min, 25°C; 10 mM HEPES pH 7.4, 150 mM NaCl, 0.005% Surfactant P20; KD = kd/ka
biotin-EPR-CTF = test: as above

## recombinant GST-tagged ZnF5-8 of PLZF (domain or fragment)
biotin-AR-CTF
  Kd: 76.5 nM
  koff: 0.00144 s⁻¹
  kon: 18700 M⁻¹ s⁻¹
biotin-EPR-CTF
  Kd: 146 nM
  koff: 0.000806 s⁻¹
  kon: 5610 M⁻¹ s⁻¹
